The assay concerns the target GST-p53, full-length, wild-type (human, UniProt P04637 1-393). Description: pull-down.

Sequence of GST-p53, full-length, wild-type (P04637 whole entry): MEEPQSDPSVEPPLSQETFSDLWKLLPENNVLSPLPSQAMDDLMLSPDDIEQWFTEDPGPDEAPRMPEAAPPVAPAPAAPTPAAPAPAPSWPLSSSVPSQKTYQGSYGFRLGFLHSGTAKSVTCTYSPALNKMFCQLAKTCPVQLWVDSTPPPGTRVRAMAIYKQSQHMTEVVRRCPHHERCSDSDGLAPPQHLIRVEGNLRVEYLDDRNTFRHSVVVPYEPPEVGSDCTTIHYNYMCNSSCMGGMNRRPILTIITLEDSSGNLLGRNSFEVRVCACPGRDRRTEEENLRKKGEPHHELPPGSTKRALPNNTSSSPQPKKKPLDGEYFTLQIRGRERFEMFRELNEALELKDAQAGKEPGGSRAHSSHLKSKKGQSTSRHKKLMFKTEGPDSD

B1: BRD4 basic residue-enriched interaction domain (BID, aa 524-579), purified (domain or fragment)
chain: QLAALSQPQQNKPKKKEKDKKEKKKEKHKRKEEVEENKKSKAKEPPPKKTKKNNSS
For B1, the binding result is recorded as “binds”.

The values are drawn from PMC11197762 (Fundamental Research, 2022).
